Data set [1] relates to JnL (Junghuhnia nitida laccase). The settings on record: read-out: Steccherinaceae group / JnL; 0.1 M McIlvaine buffer pH 4.5, 25 °C.
In data set [2] the test system is SbL (Steccherinum bourdotii laccase). The settings on record: read-out: Steccherinaceae group / JnL; 0.1 M McIlvaine buffer pH 4.5, 25 °C.
For data set [3], the system named is T1, JnL (Junghuhnia nitida laccase).
T1 construct: peptides most similar to S. murashkinskyi laccase 2 / A. faginea laccase A
As to the kind of experiment: spectrophotometric oxidation, […] nm, non-linear fit. The data set is classed as biochemical. The settings on record: 0.1 M McIlvaine buffer pH 4.5, 25 °C; read-out: Steccherinaceae group / JnL.

Data set [4] concerns T2, SbL (Steccherinum bourdotii laccase).
T2 construct: peptides most similar to S. murashkinskyi laccase 2 / A. faginea laccase A
The experiment in a line: spectrophotometric oxidation, […] nm, non-linear fit. The settings on record: 0.1 M McIlvaine buffer pH 4.5, 25 °C; read-out: Steccherinaceae group / SbL. The data set is classed as biochemical.

Data set [5] concerns T1, JnL (Junghuhnia nitida laccase). As to the kind of experiment: spectrophotometric oxidation, […] nm, non-linear fit. The format is biochemical. The settings on record: 0.1 M McIlvaine buffer pH 4.5, 25 °C; read-out: Steccherinaceae group / JnL. This is another data set of the same source.
Data set [6] deals with T2, SbL (Steccherinum bourdotii laccase). The experiment in a line: spectrophotometric oxidation, […] nm, non-linear fit. The format is biochemical. The settings on record: 0.1 M McIlvaine buffer pH 4.5, 25 °C; read-out: Steccherinaceae group / SbL. This is another data set of the same source.
The test system is the same in data set [7]. The experiment in a line: spectrophotometric oxidation, […] nm, non-linear fit. The format is biochemical. Conditions: 0.1 M McIlvaine buffer pH 4.5, 25 °C; read-out: Steccherinaceae group / SbL. The source holds these as a separate data set.
Data set [8] relates to T1, JnL (Junghuhnia nitida laccase). The experiment in a line: spectrophotometric oxidation, […] nm, non-linear fit. The data set is classed as biochemical. Conditions: 0.1 M McIlvaine buffer pH 4.5, 25 °C; read-out: Steccherinaceae group / JnL. This is another data set of the same source.
Data set [9] concerns T2, SbL (Steccherinum bourdotii laccase). As to the kind of experiment: spectrophotometric oxidation, […] nm, non-linear fit. The data set is classed as biochemical. The settings on record: 0.1 M McIlvaine buffer pH 4.5, 25 °C; read-out: Steccherinaceae group / SbL. The source holds these as a separate data set.
Data set [10] has as its system JnL (Junghuhnia nitida laccase). The settings on record: read-out: Steccherinaceae group / JnL; 0.1 M McIlvaine buffer pH 4.5, 25 °C. The source holds these as a separate data set.
Data set [11] has as its system T2, SbL (Steccherinum bourdotii laccase). The experiment in a line: oxygen consumption, Clark-type electrode, non-linear fit. The data set is classed as biochemical. Conditions: 0.1 M citrate-phosphate buffer pH 4.5, 25 °C; read-out: Steccherinaceae group / SbL. An excerpt:
oxygen consumption, Clark-type electrode, non-linear fit on SbL (Steccherinum bourdotii laccase)

Data set [12] deals with T1, JnL (Junghuhnia nitida laccase). The data set is described as above. The data set is classed as biochemical. Conditions: 0.1 M citrate-phosphate buffer pH 4.5, 25 °C; read-out: Steccherinaceae group / JnL. The text has this: oxygen consumption, Clark-type electrode, non-linear fit on JnL (Junghuhnia nitida laccase)
Substrate in data set [13]: COc1ccccc1O
As to the kind of experiment: purified protein, by the assay type. The settings on record: 25.0 °C. Also noted: Laccase substrate oxidation kinetics, spectrophotometric initial rates, 25 °C, McIlvaine buffer pH 4.5. The method, then: (§1) Kinetic constants were measured spectrophotometrically using a PerkinElmer Lambda 35 spectrophotometer (USA) at 25°C. […] 10 μl of enzyme solution at a concentration of 1 mg·ml^-1 (50 mM potassium phosphate buffer pH 6.5) was added to 2 ml substrate solution in 0.1 M McIlvaine buffer, pH 4.5. The reaction rate was measured by monitoring of the absorbance change during 3 min. […] It is interesting that syringyl-type substrates like 2,6-DMP, sinapic acid and syringaldazine were better in terms of Km and kcat/Km values for JnL and SbL compared to CcL and ThL.

Substrate in data set [14]: Oc1ccccc1O
The experiment in a line: purified protein, by the assay type. The settings on record: 25.0 °C. Also noted: Laccase substrate oxidation kinetics, spectrophotometric initial rates, 25 °C, McIlvaine buffer pH 4.5. The method, then: as §1

Substrate in data set [15]: O=C(O)c1cc(O)c(O)c(O)c1
As to the kind of experiment: purified protein, by the assay type. Also noted: Laccase substrate oxidation kinetics, spectrophotometric initial rates, 25 °C, McIlvaine buffer pH 4.5. The settings on record: 25.0 °C. On the procedure: as §1

Substrate in data set [16]: COc1cc(C=NN=Cc2cc(OC)c(O)c(OC)c2)cc(OC)c1O
As to the kind of experiment: purified protein, by the assay type. Also noted: Laccase substrate oxidation kinetics, spectrophotometric initial rates, 25 °C, McIlvaine buffer pH 4.5. The settings on record: 25.0 °C. On the procedure: as §1

Substrate in data set [17]: COc1cc(/C=C/C(=O)O)ccc1O
As to the kind of experiment: purified protein, by the assay type. Also noted: Laccase substrate oxidation kinetics, spectrophotometric initial rates, 25 °C, McIlvaine buffer pH 4.5. Conditions: 25.0 °C. The method, then:
as §1

Substrate in data set [18]: COc1cccc(OC)c1O
As to the kind of experiment: purified protein. The format is biochemical, Trametes hirsuta. Conditions: 0.1 M McIlvaine buffer pH 4.5, 25 °C.

Substrate in data set [19]: COc1cc(/C=C/C(=O)O)cc(OC)c1O
The experiment in a line: purified protein. The settings on record: 0.1 M McIlvaine buffer pH 4.5, 25 °C. The format is biochemical, Trametes hirsuta.

Substrate in data set [20]: COc1cc([C@@H]2OC[C@@H]3[C@H]2CO[C@H]3c2ccc(O)c(OC)c2)ccc1O
As to the kind of experiment: oxygen consumption, Clark-type electrode, non-linear fit. The settings on record: 0.1 M citrate-phosphate buffer pH 4.5, 25 °C. The data set is classed as biochemical, Trametes hirsuta. An excerpt:
oxygen consumption, Clark-type electrode, non-linear fit on ThL (Trametes hirsuta laccase)

Substrate in data set [21]: COc1cc(/C=C/C(=O)O)cc(OC)c1O
The experiment in a line: purified protein. The data set is classed as biochemical, Cerrena caperata. The settings on record: 0.1 M McIlvaine buffer pH 4.5, 25 °C.

Substrate in data set [22]: COc1cc(C=NN=Cc2cc(OC)c(O)c(OC)c2)cc(OC)c1O
The experiment in a line: purified protein. The data set is classed as biochemical, Cerrena caperata. The settings on record: 0.1 M McIlvaine buffer pH 4.5, 25 °C.

Substrate in data set [23]: COc1cc(/C=C/C(=O)O)ccc1O
The experiment in a line: purified protein. The settings on record: 0.1 M McIlvaine buffer pH 4.5, 25 °C.

Substrate in data set [24]: COc1cccc(OC)c1O
As to the kind of experiment: purified protein, by the assay type. Also noted: Laccase substrate oxidation kinetics, spectrophotometric initial rates, 25 °C, McIlvaine buffer pH 4.5. Conditions: 25.0 °C. The method, then: as §1

Like-named read-outs stand apart in the source and are kept apart here.

Drawing on publication PMC5983490, “White-rot basidiomycetes Junghuhnia nitida and Steccherinum bourdotii: Oxidative potential and laccase properties in comparison with Trametes hirsuta and Coriolopsis caperata” (PLoS ONE, 2018), this text covers Km, kcat and kcat/Km for eight molecules.

With `CCn1c(=NN=c2sc3cc(S(=O)(=O)O)ccc3n2CC)sc2cc(S(=O)(=O)O)ccc21` [ABTS], the Km in [1] and in data set [2] was 17 ± 2 µM each time.

With `COc1cccc(OC)c1O` [2,6-DMP], the values for the Km in [3] and in data set [4] were 7 ± 1 µM and 8 ± 1 µM, respectively.

As for `COc1cc(/C=C/C(=O)O)cc(OC)c1O` [Sinapic acid], the results for the Km in data set [5] and in data set [6] were 9 ± 1 µM and 8 ± 1 µM, respectively.

`COc1cc(C=NN=Cc2cc(OC)c(O)c(OC)c2)cc(OC)c1O` [Syringaldazine]: the Km in data set [7] stood at 1 ± 0.3 µM; in data set [8] it was 2 ± 0.4 µM.

As to `COc1cc(/C=C/C(=O)O)ccc1O` [Ferulic acid], the Km in data set [9] came out at 19 ± 2 µM; in [10], 19 ± 1 µM.

For the molecule `COc1cc([C@@H]2OC[C@@H]3[C@H]2CO[C@H]3c2ccc(O)c(OC)c2)ccc1O` [Pinoresinol], the Km in [11] came to 149 ± 22 µM; in [12], 89 ± 12 µM.

B1: ThL (Trametes hirsuta laccase) (Trametes hirsuta) (protein)
chain: AVGPVADLTITDAAVSPDGFSRQAVVVNGVTPGPLVAGNIGDRFQLNVIDNLTNHTMLKSTSIHWHGFFQHGTNWADGPAFINQCPISPGHSFLYDFQVPDQAGTFWYHSHLSTQYCDGLRGPFVVYDPNDPHASRYDVDNDDTVITLADWYHTAAKLGPRFPGGADATLINGKGRAPSDSPAELSVIKVTKGKRYRFRLVSLSCNPNHTFSIDGHNLTIIEVDSVNSQPLEVDSIQIFAAQRYSFVLDANQAVDNYWIRANPNFGNVGFDGGINSAILRYDGAPAVEPTTNQTTSVKPLNEVDLHPLVSTPVPGSPSSGGVDKAINMAFNFNGSNFFINGASFVPPTVPVLLQILSGAQTAQDLLPSGSVYVLPSNASIEISFPATAAAPGAPHPFHLHGHTFAVVRSAGSTVYNYDNPIFRDVVSTGTPAAGDNVTIRFDTNNPGPWFLHCHIDFHLEGGFAVVMAEDTPDVKAVNPVPQAWSDLCPTYDALDPNDQ
Turning to B1, the Km in data set [13] turned out to be 173 µM; in data set [14], 183 µM; in data set [15], 223 µM; in data set [16], 34 µM; in data set [17] it was 28 µM; in the data set “purified protein [18]” it was 24 ± 2 µM. The values for the Km (in the data set “purified protein [19]”; in data set [20]) were 13 ± 1 µM and 61 ± 8 µM, respectively. In addition, the kcat – broadly, the maximal rate divided by the concentration of active sites – in [13] came out at 162 ± 10 s⁻¹; in data set [14], 302 ± 27 s⁻¹; in [15], 58 ± 3 s⁻¹; in data set [16], 131 ± 10 s⁻¹; in data set [17], 270 ± 25 s⁻¹; in “purified protein [18]” it was 128 ± 11 s⁻¹. Also, the results for the kcat (in the data set “purified protein [19]”; in data set [20]) were 317 ± 23 s⁻¹ and 73 ± 3 s⁻¹, respectively. Moreover, the kcat/Km (commonly the turnover number divided by the Michaelis constant) in data set [13] was 976000 M⁻¹ s⁻¹; in [14], 1.65e+06 M⁻¹ s⁻¹; in data set [15] it was 260000 M⁻¹ s⁻¹; in data set [16], 3.85e+06 M⁻¹ s⁻¹; in data set [17], 9.64e+06 M⁻¹ s⁻¹; in the data set “purified protein [18]”, 5.33e+06 M⁻¹ s⁻¹. The kcat/Km in “purified protein [19]” was determined as 2.44e+07 M⁻¹ s⁻¹; in [20] it was 1.2e+06 M⁻¹ s⁻¹.

B2: CcL (Coriolopsis caperata laccase) (Cerrena caperata) (protein)
chain: GIGPVTDLTISDGPVSPDGFTRQAILVNNQFPSPLITGNKGDRFQLNVIDNMNNHTMLKSTSIHWHGFFQHGTNWADGPAFVNQCPISPGHSFLYDFQVPDQAGTFWYHSHLSTQYCDGLRGPIVVYDPQDPHKDLYDVDDDSTVITLADWYHLAAKVGPAVPTADATLINGLGRSISTLNADLAVISVTKGKRYRFRLVSLSCDPNHTFSIDGHTMTVIEADSVNLKPQVVDSIQIFAAQRYSFVLNADQDIGNYWIRAMPNSGTRNFDGGVNSAILRYDGADPVEPTTTQTPSSQPLVESALTTLEGTAAPGSPTAGGVDLAINMAFGFAGGRFTINGASFTPPTVPVLLQILSGAQNAQDLLPTGSVYSLPANADIEISLPATAAAPGFPHPFHLHGHTFAVVRSAGSSTYNYANPVYRDVVSTGSPGDNVTIRFRTDNPGPWFLHCHIDFHLEAGFAVVMAEDIPDVAAVNPVPQAWSDLCPTYNALDPNDQ
For B2, the Km in the data set “purified protein [21]” was 17 ± 2 µM; in “purified protein [22]” it was 5 ± 0.3 µM; in “purified protein [23]” it was 20 ± 2 µM; in data set [24], 65 µM; in [13], 696 µM; in [14], 815 µM. For the same molecule, the Km in data set [15] stood at 129 µM. Besides, the kcat in “purified protein [21]” worked out at 324 ± 31 s⁻¹; in “purified protein [22]”, 122 ± 2 s⁻¹; in “purified protein [23]” it was 234 s⁻¹; in data set [24] it was 121 ± 8 s⁻¹; in [13] it was 165 ± 12 s⁻¹; in data set [14], 269 ± 6 s⁻¹. In addition, the kcat in data set [15] worked out at 55 ± 2 s⁻¹. The kcat/Km was determined as 1.91e+07 M⁻¹ s⁻¹ in the data set “purified protein [21]”; 2.44e+07 M⁻¹ s⁻¹ in the data set “purified protein [22]”; 1.17e+07 M⁻¹ s⁻¹ in the data set “purified protein [23]”; 1.86e+06 M⁻¹ s⁻¹ in [24]; 237000 M⁻¹ s⁻¹ in data set [13]; 330000 M⁻¹ s⁻¹ in data set [14]. Further, in [15], the kcat/Km was determined as 434000 M⁻¹ s⁻¹.
